The values below come from publication PMC6797804 (2019).

Ends that are not written are not given here. * marks the point of attachment. Crotonyl(E) = C/C=C/C(=O)*

The target of assay [1] is T1, MORF DPF domain (residues 211–322), wild type (human, UniProt Q8WYB5 211-322).
T1 chain: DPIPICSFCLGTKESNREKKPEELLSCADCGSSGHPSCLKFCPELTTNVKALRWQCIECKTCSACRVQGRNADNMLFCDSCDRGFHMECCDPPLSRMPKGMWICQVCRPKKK

The target of assay [2] is T2, MORF DPF domain (residues 211–322) F218A (human, UniProt Q8WYB5 211-322, F218A).
T2 sequence: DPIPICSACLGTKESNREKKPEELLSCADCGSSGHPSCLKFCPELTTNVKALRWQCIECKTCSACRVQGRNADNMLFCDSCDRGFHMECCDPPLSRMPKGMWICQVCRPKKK

Assay [3] addresses MORF DPF domain (residues 211–322) F287A (human, UniProt Q8WYB5 211-322, F287A). Kind of assay: NMR.
The target of assay [4] is T3, MORF DPF domain (residues 211–322) F287A/R306E/K309E (human, UniProt Q8WYB5 211-322, F287A | R306E | K309E).
T3 sequence: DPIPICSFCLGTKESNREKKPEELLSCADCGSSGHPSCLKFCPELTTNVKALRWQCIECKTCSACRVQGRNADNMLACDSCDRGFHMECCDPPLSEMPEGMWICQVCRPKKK
Nature of the assay: NMR.

Chain of MORF DPF domain (residues 211–322) F287A (Q8WYB5 211-322 F287A): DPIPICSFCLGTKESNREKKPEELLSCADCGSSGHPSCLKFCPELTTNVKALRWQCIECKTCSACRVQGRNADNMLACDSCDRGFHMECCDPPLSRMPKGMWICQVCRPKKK

ARTKQTARKSTGGKAPRKQ [unmodified histone H3 peptide (residues 1–19 of H3)]: the Kd came out at 3.6 µM in assay [1], 3.3 µM in assay [2] and 8000 µM in assay [3].

Regarding ARTKQTARKSTGGK(Crotonyl(E))APRKQ [histone H3K14cr peptide (residues 1–19 of H3)], the Kd in assay [4] is 285 µM.

As a reminder, the Kd is the free concentration of one partner at which half of the binding sites on the other are occupied at equilibrium, for simple one-to-one binding. Read a low Kd as a tighter complex.
